According to paper PMC9882600, “Asymmetric gating of a human hetero-pentameric glycine receptor” (Research Square, 2023):

Columns and labels:
[1] = target: the molecule itself; assay: cryo-EM structure; α1emβem GlyR co-expressed and purified as a complex, 6 mg/ml in 20 mM Tris pH 8.0, 200 mM NaCl, 0.06% digitonin; vitrified without ligand (apo) or after 1 h with 2 mM glycine on ice (open, expanded-open, desensitized classes); ~3 mM fluorinated fos-choline 8 added before freezing
[2] = target: human glycine receptor β subunit, cryo-EM construct βem (human) (UniProt P48167); assay: as above
human glycine receptor β subunit, cryo-EM construct βem (human), sequence (P48167 23-497): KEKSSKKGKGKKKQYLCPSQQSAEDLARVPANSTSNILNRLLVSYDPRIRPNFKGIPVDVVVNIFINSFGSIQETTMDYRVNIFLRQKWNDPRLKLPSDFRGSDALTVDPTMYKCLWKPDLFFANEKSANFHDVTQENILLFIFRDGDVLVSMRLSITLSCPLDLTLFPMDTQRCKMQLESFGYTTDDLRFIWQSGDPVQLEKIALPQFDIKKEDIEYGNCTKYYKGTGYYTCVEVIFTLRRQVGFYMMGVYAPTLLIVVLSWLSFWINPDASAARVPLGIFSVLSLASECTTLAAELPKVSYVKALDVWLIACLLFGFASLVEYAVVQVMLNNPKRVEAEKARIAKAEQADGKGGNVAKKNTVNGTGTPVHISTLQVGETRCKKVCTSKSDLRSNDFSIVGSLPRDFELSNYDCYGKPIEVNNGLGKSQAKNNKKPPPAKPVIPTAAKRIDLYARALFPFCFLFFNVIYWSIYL

B1: human glycine receptor α1 subunit, cryo-EM construct α1em (receptor)
chain: ARSAPKPMSPSDFLDKLMGRTSGYDARIRPNFKGPPVNVSCNIFINSFGSIAETTMDYRVNIFLRQQWNDPRLAYNEYPDDSLDLDPSMLDSIWKPDLFFANEKGAHFHEITTDNKLLRISRNGNVLYSIRITLTLACPMDLKNFPMDVQTCIMQLESFGYTMNDLIFEWQEQGAVQVADGLTLPQFILKEEKDLRYCTKHYNTGKFTCIEARFHLERQMGYYLIQMYIPSLLIVILSWISFWINMDAAPARVGLGITTVLTMTTQSSGSRASLPKVSYVKAIDIWMAVCLLFVFSALLEYAAVNFVSRQHKELLGSSGEEMRKLFIQRAKKIDKISRIGFPMAFLIFNMFYWIIYKIVRREDVHNQ
notes: glycine receptor α1 subunit, human, NCBI NP_001139512.1; residues before the M3/M4 loop stretch R316-P381 that was replaced by GSSG; the lists of unbuilt residues begin at A1 and give 367 aa in total; linker that replaces the M3/M4 loop residues R316-P381; residues after the replaced M3/M4 loop stretch, to Q429 (last residue named in the lists of unbuilt residues); Four copies stand in the …
- binding result [1]: binds
- stoichiometry N [2]: 4 α1:β
